Data on 2 sequences can be found in PMC8610173.

In this series the target is NF-Y (NF-YA confirmed by supershift) ((K562 cells)) (UniProt P23511). Nature of the series: EMSA. Background: A gel shift assay detects complexes by their altered migration in electrophoresis.
Sequence of NF-Y (NF-YA confirmed by supershift) ((K562 cells)) (P23511 whole entry): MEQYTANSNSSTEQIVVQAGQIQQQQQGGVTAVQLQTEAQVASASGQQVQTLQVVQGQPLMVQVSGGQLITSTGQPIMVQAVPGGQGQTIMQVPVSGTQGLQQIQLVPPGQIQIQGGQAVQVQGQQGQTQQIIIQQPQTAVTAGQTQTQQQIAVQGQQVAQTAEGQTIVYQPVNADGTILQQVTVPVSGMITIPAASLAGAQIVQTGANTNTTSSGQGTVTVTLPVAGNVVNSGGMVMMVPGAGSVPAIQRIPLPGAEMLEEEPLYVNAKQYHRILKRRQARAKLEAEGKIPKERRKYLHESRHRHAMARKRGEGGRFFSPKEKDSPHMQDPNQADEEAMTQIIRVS

Take “AGCCTTGCCTTGACCAATCGCCTTGACAA (double strand) [HBG distal CCAAT box -110 A>C]”: the binding signal (fold of WT band intensity) turned out to be 1.5.

As for “AGCCTTGCCTTGACCAATAGCCTTGACAA (double strand) [HBG distal CCAAT box WT]”, the binding signal (fold of WT band intensity (reference)) worked out at 1.
